The results in this text go back to patent publication US20190247357A1, “NANOPARTICLE FORMULATIONS AND METHODS OF MAKING AND USING THEREOF” (Abraxis BioScience, LLC, priority 2016, published 2019).

Experiment [1] has as its target ErbB2 (UniProt P04626). The experiment is described as follows: Phospho(Tyr1248)/Total ErbB2 binding assay, MSD whole cell lysate kit, BT-474 cells treated 2 h.
In experiment [2] the target is ErbB2 (UniProt P04626). Kind of experiment: Phospho(Tyr1248)/Total ErbB2 binding assay, MSD whole cell lysate kit, SK-BR-3 cells treated 2 h.
Experiment [3] deals with A375 human melanoma cells. The experiment is described as follows: A375 melanoma xenograft model: tumor volume change and survival. The settings on record: mice with tumors larger than 2000 mm^3 euthanized.
Protocol: A375 human melanoma cells were subcutaneously injected into mice to generate xenograft models. The tumors were allowed to grow to about 600 mm^3 before treatment according to the following protocols. Nine mice were treated for each protocol, except as noted.
Cohort 1—Vehicle control (“Vehicle”). […] The vehicle control was administered to each mouse at a dosage of 120 μL/mouse on the second day of the experiment.
Cohort 4—BEV12 and ABX30 on same day (“BEV12+ABX30—Same Day”).
P-values were determined using an un-paired t-test.
Survival time of the treated mice was also recoded. Mice with tumors larger than 2000 mm^3 were euthanized.

For the substance “Click conjugate of trastuzumab and nab-paclitaxel particles (Example 26, paclitaxel:trastuzumab 51:1) (from UniProt P02768 25-609)”, the results for the IC50 in the experiment with ErbB2 [1] and with ErbB2 [2] were 0.702 nM and 0.59 nM, respectively. For “Nanoparticles with embedded trastuzumab, paclitaxel and albumin (Example 12, Batch 1, paclitaxel:trastuzumab 5.6:1) (from UniProt P02768 25-609)”, in that order: 0.35 nM and 0.357 nM. As for “Nanoparticles with embedded trastuzumab, paclitaxel and albumin (Example 12, Batch 2, paclitaxel:trastuzumab 5.9:1) (from UniProt P02768 25-609)”, the IC50 (usually the midpoint of a concentration-inhibition curve) with ErbB2 [1] stood at 0.349 nM; with ErbB2 [2] it was 0.361 nM. As to “Nanoparticles with embedded trastuzumab, paclitaxel and albumin (Example 12, Batch 3, paclitaxel:trastuzumab 6.7:1) (from UniProt P02768 25-609)”, the concentration for half-maximal inhibition (IC50) with ErbB2 [1] stood at 0.456 nM; in the experiment with ErbB2 [2], 0.37 nM.

Consider “Nanoparticles with embedded trastuzumab, paclitaxel and albumin (Example 12, Batch 4, paclitaxel:trastuzumab 4.5:1) (from UniProt P02768 25-609)”, for which the IC50 in the experiment with ErbB2 [1] stood at 0.429 nM; in the experiment with ErbB2 [2] it was 0.289 nM. For “Nanoparticles with embedded trastuzumab, paclitaxel and albumin, with free mAb (Example 20, paclitaxel:trastuzumab 10:1) (from UniProt P02768 25-609)” the same measures were 0.524 nM and 0.409 nM. For the substance “SM(PEG)6 conjugate of trastuzumab and isolated nab-paclitaxel particles (Example 23, paclitaxel:trastuzumab 92.5:1) (from UniProt P02768 25-609)”, the values for the IC50 with ErbB2 [1] and with ErbB2 [2] were 0.291 nM and 0.557 nM, respectively. In the case of “SM(PEG)6 conjugate of trastuzumab and nab-paclitaxel particles with free mAb (Example 35, paclitaxel:trastuzumab 10:1) (from UniProt P02768 25-609)”, the values for the IC50 with ErbB2 [1] and in the experiment with ErbB2 [2] were 0.441 nM and 0.301 nM, respectively. For “Thiolated conjugate of trastuzumab and nab-paclitaxel particles (Example 33, paclitaxel:trastuzumab 12:1) (from UniProt P02768 25-609)” the same measures were 0.216 nM and 0.977 nM. In the experiment with ErbB2 [2], “Thiolated conjugate of trastuzumab and nab-paclitaxel particles (Example 34, paclitaxel:trastuzumab 31:1) (from UniProt P02768 25-609)” registered a 50% inhibitory concentration (IC50) of 0.311 nM. Consider “bevacizumab: antiangiogenic antibody that targets vascular endothelial growth factor A (VEGF-A)”, for which the “Median Survival” value in experiment [3] was found to be 38 days.
